The text below walks through data of patent US9200265B2, “Anti-cocaine compositions and treatment” (priority 2006, dated 2015).

Series [1] deals with T1, CocE (Rhodococcus sp., UniProt Q9L9D7).
T1 construct: generating a full-length CocE gene encoding the T172R mutation; His6 (C); made in house; host or cells: E. coli (pET-22b(+))
The experiment in a line: Stabilization of 37° C.-induced CocE activity loss. The format is biochemical, Rhodococcus sp. MB 1. The following applies: uM quantities. The text has this:
(§1) Cocaine esterase (CocE) cleaves cocaine to produce Benzoic acid and Ecgonine methyl ester. Briefly, alternative substrates and inhibitors of cocaine, as well as compounds able to thermostabilize the enzyme, were investigated generally by substituting amide and thiol analogues at the reactive ester bond, or removing the bond (for inhibitors), substituting benzoyl analogues in place of the benzoic acid leaving group, and/or removing or altering the methyl-ester group on the ecgonine portion of the molecule. As discussed below, it was determined that some substrates, products, and inhibitors stabilized thermal denaturation of wild type CocE, as well as prevented thermally-induced aggregation in gel electrophoresis.
(§2) Cocaine is the natural substrate of Cocaine esterase (CocE). Cocaine cleavage was monitored by a drop in absorbance at 240 nm. Cocaine (mM range) prevented 37° C.-induced formation of high molecular weight CocE aggregates (0.1 mg/ml enzyme concentrations) (see, e.g., FIG. 33). Cocaine (uM quantities) stabilized 37° C.-induced activity loss (see, e.g., FIG. 34), although the mechanism of this stabilization is complicated due to substrate inhibition at higher concentrations.

Series [2] has as its target T1, CocE. The experiment in a line: Inhibition of CocE (cleavage of 4-nitrophenyl acetate). The format is biochemical, Rhodococcus sp. MB 1. How it is done: Benzoic acid prevented 37° C.-induced formation of high molecular weight CocE aggregates (0.1 mg/ml enzyme concentrations) (see, e.g., FIG. 35). Benzoic acid (uM quantities) stabilized 37° C.-induced activity loss (see, e.g., FIG. 36), although the mechanism of this stabilization is complicated due to substrate inhibition at higher concentrations.
CocE catalyzes the cleavage of 4-nitrophenyl acetate (4NPA) to 4-nitrophenol (4NP) and acetate. The cleavage reaction was monitored by observation of product formation at 400 nm. Both 4NP and 4NPA (mM range) prevented 37° C.-induced formation of high molecular weight CocE aggregates (0.1 mg/ml enzyme concentrations).

Series [3] has as its target T1, CocE. The experiment in a line: Stabilization against 37° C.-induced formation of high molecular weight CocE aggregates (gel). The class given is physicochemical, Rhodococcus sp. MB 1. The following applies: 0.1 mg/ml enzyme, mM range. The protocol:
Plasmids containing the mutations were transformed into E. coli BL21 cells and IPTG-induced enzyme was purified on Ni-Agarose. Expressed proteins were then tested for enzymatic activity and for thermostability at 37° C. Enzyme activity was measured using the spectrophotometric assay as described in Example 1. Thermostability was also tested via the spectrophotometric assay by pre-incubation of both wild-type and mutants at 37° C. for various times. Additionally, the nature of the thermo-instability of both the wild-type and T172R mutant was analyzed by polyacrylamide gel electrophoresis under denaturing and non-denaturing conditions. Briefly, mutant and wild-type enzyme at 0.1 mg/ml were incubated at 37° C. for various time-points, cooled to 4° C., mixed with SDS-loading dye containing-mercaptoethanol and run on 10% SDS-PAGE gels (denaturing conditions) or run on native 10% polyacrylamide gels (non-denaturing conditions) at 4° C. Gels were fixed with 10% methanol, 7% acetic acid for 30 minutes, and then stained with Sypro-Ruby protein gel stain (Molecular Probes, Invitrogen) for 3 hours. Protein staining was visualized under UV-light using an AlphaImager™ 3400 (Alpha Innotech). Finally, the exact melting temperature of both the wild-type and T172R mutant were determined by circular dichroism using a JASCO-810 spectropolarimeter driven by a JASCO V500/FP-750 analysis program for Windows. The CD spectra were measured in millidegrees and normalized against PBS buffer.
as §1, §2

Series [4] concerns cocaine-induced lethality. The experiment in a line: Rodent model of acute cocaine toxicity (convulsions and lethality) in rats.
The nature of series [5]: Cocaine blood levels and lethal concentrations in the rat (literature).
The conditions of series [6]: humans; cited from earlier work.
The test system of series [7] is cocaine-induced lethality. The experiment in a line: Cocaine toxicity in mice, incl. repeated CocE doses. The format is in vivo, mouse. The text has this:
The animal toxicity model was similar to that described previously, except as described. Male NIH Swiss mice were used. For tail intravenous injection, mice are placed in a small restraint chamber that exposes their tail. A heat lamp with an infrared, 250 w bulb is placed about 4 inches from the tail, and left for a couple of minutes. The tail is then cleansed with an alcohol wipe and a 30 G ½ precision glide needle (Fisher Scientific), is inserted into one of the side veins for infusion. To verify whether the needle is in the vein a small amount of drug is infused, if in the correct location the solution should infuse easily without any indication of an incorrect subcutaneous location, which appears white at the site of injection. For intravenous catheterization, Male NIH Swiss mice are anesthetized with ketamine 100 mg/kg and xylazine 10 mg/kg co-administered i.p. When mice are no longer responsive to paw pressure, the neck is shaved and prepped by alternating Betadine and alcohol wipes. Under clean conditions, a right transverse neck incision is made and the external jugular vein is isolated. A catheter is inserted into the vein with the aid of a dissecting microscope to the level of the right atrium, and is secured in the vein with nylon, 4-0 sutures and tissue adhesive, 3M Vetbond (3M Animal Care Products, St. Paul, Minn.). The catheters are a short length of Tygon tubing with an inner diameter of 0.010 in. and an outer diameter of 0.030 in. (Small Parts, Inc., Miami Lakes, Fla.). A small incision is made in the middle of the animal's back, and a trocar inserted subcutaneously to exit at the ventral incision site. The catheter is then pulled through the trocar and brought out the animal's back where it is held in place with nylon suture material and the tissue adhesive. A short piece of steel wire with a diameter of 0.011 in. (Small Parts, Inc., Miami Lakes, Fla.) is inserted into the end of the catheter. The ventral incision is closed with 4-0 Vicryl suture material and the mouse placed under a heat lamp for recovery. Approximately an hour later, the mouse is returned to its home cage.
Mice that survived a first administration of the combination of 0.32 mg CocE and 320 mg/kg cocaine were given this combination again, 14 days following the initial administration.

For series [8] the following is noted: cited from earlier work.
The nature of series [9]: CocE activity recovered after pegylation (initial rates of cocaine hydrolysis). The following applies: m-PEG 5.5 KDa, preliminary.
The nature of series [10]: Cocaine spectrophotometric assay (240 nm), Michaelis-Menten kinetics.
Series [11] in a line: Gel filtration of samples incubated at 37° C. The class given is physicochemical. The protocol:
Higher Km values on day 3 were due to reuse of old cocaine.
Protection from aggregation of thermal stable CocE mutants was assessed using size exclusion chromatography. Briefly, enzymes were preincubated at 37° C. for 0 minutes or 60 minutes and resolved by size exclusion chromatography.

Series [12] relates to cocaine-induced lethality. The settings on record: rats; cited from earlier work.
The conditions of series [13]: against (-) cocaine; cited from earlier work.

Like-named read-outs stand apart in the source and are kept apart here. A value given as a limit tells only on which side of the number the result lay.

Take `O=C(O)c1ccccc1` [Benzoic acid]: in series [1], the “37° C.-induced activity loss” value is reported as “stabilized”. In series [2], this molecule had an inhibition constant (Ki) of 310 µM. In [3], the “37° C.-induced formation of high molecular weight CocE aggregates” value is “prevented”.
Take `COC(=O)[C@H]1[C@@H](OC(=O)c2ccccc2)C[C@@H]2CC[C@H]1N2C` [cocaine]: the “animals in which death was observed” value in series [4] (100 mg/kg cocaine, rats) came out at 100%. The “time to death after administration” value in [4] (100 mg/kg cocaine, rats) is reported as “less than 15 minutes”. Besides, the “estimated peak cocaine blood concentration” value in series [5] (100 mg/kg cocaine i.p.) was 35 µM; in series [5] (320 mg/kg cocaine i.p.) it was 113 µM. The lethal concentrations in series [6] was 20 to 200 µM. The time to death result in [7] (180 mg/kg i.p. cocaine alone, mice) is “about 3 min”. The “time of peak plasma levels” value in series [8] (after an intraperitoneal injection) was “about 13 minutes”. In addition, in series [8] (rat), the lethal blood concentrations was 50 to 128 µM.

B1: PEG-CocE: wild-type CocE linked with monomethoxy-PEG polymers (MW 5.5 KDa), mixture with 1 to 4 PEG chains (conjugate, UniProt Q9L9D7 1-574, looked up)
Cocaine esterase: MVDGNYSVASNVMVPMRDGVRLAVDLYRPDADGPVPVLLVRNPYDKFDVFAWSTQSTNWLEFVRDGYAVVIQDTRGLFASEGEFVPHVDDEADAEDTLSWILEQAWCDGNVGMFGVSYLGVTQWQAAVSGVGGLKAIAPSMASADLYRAPWYGPGGALSVEALLGWSALIGTGLITSRSDARPEDAADFVQLAAILNDVAGAASVTPLAEQPLLGRLIPWVIDQVVDHPDNDESWQSISLFERLGGLATPALITAGWYDGFVGESLRTFVAVKDNADARLVVGPWSHSNLTGRNADRKFGIAATYPIQEATTMHKAFFDRHLRGETDALAGVPKVRLFVMGIDEWRDETDWPLPDTAYTPFYLGGSGAANTSTGGGTLSTSISGTESADTYLYDPADPVPSLGGTLLFHNGDNGPADQRPIHDRDDVLCYSTEVLTDPVEVTGTVSARLFVSSSAVDTDFTAKLVDVFPDGRAIALCDGIVRMRYRETLVNPTLIEAGEIYEVAIDMLATSNVFLPGHRIMVQVSSSNFPKYDRNSNTGGVIAREQLEEMCTAVNRIHRGPEHPSHIVLPIIKR
modifications: monomethoxy-PEG 5.5 kDa, 1-4 chains
In the case of B1, in series [9], the “initial CocE activity recovered after the pegylation reaction” value is given as > 70%.

B2: N197K (protein)
chain: MVDGNYSVASNVMVPMRDGVRLAVDLYRPDADGPVPVLLVRNPYDKFDVFAWSTQSTNWLEFVRDGYAVVIQDTRGLFASEGEFVPHVDDEADAEDTLSWILEQAWCDGNVGMFGVSYLGVTQWQAAVSGVGGLKAIAPSMASADLYRAPWYGPGGALSVEALLGWSALIGTGLITSRSDARPEDAADFVQLAAILKDVAGAASVTPLAEQPLLGRLIPWVIDQVVDHPDNDESWQSISLFERLGGLATPALITAGWYDGFVGESLRTFVAVKDNADARLVVGPWSHSNLTGRNADRKFGIAATYPIQEATTMHKAFFDRHLRGETDALAGVPKVRLFVMGIDEWRDETDWPLPDTAYTPFYLGGSGAANTSTGGGTLSTSISGTESADTYLYDPADPVPSLGGTLLFHNGDNGPADQRPIHDRDDVLCYSTEVLTDPVEVTGTVSARLFVSSSAVDTDFTAKLVDVFPDGRAIALCDGIVRMRYRETLVNPTLIEAGEIYEVAIDMLATSNVFLPGHRIMVQVSSSNFPKYDRNSNTGGVIAREQLEEMCTAVNRIHRGPEHPSHIVLPIIKRLEHHHHHH
modifications: Mutant CocE polypeptide
Regarding B2, the Km in [10] (Day 0, (0) at 37° C.) was found to be 34.8 µM; in series [10] (Day 0, (60) at 37° C.) it was 24.2 µM; in series [10] (Day 3 repeat, (0), old cocaine reused), 102 µM; in series [10] (Day 3 repeat, (60), old cocaine reused), 114 µM. Moreover, the “stability after 1 hour at 37° C.” value in series [10] (day 0, preliminary) was “good stability”. Also, in series [11], the gel filtration result was “formation of aggregates”.

B3: BChE: serum butyrylcholinesterase (protein, UniProt P06276 29-602, looked up)
Cholinesterase: EDDIIIATKNGKVRGMNLTVFGGTVTAFLGIPYAQPPLGRLRFKKPQSLTKWSDIWNATKYANSCCQNIDQSFPGFHGSEMWNPNTDLSEDCLYLNVWIPAPKPKNATVLIWIYGGGFQTGTSSLHVYDGKFLARVERVIVVSMNYRVGALGFLALPGNPEAPGNMGLFDQQLALQWVQKNIAAFGGNPKSVTLFGESAGAASVSLHLLSPGSHSLFTRAILQSGSFNAPWAVTSLYEARNRTLNLAKLTGCSRENETEIIKCLRNKDPQEILLNEAFVVPYGTPLSVNFGPTVDGDFLTDMPDILLELGQFKKTQILVGVNKDEGTAFLVYGAPGFSKDNNSIITRKEFQEGLKIFFPGVSEFGKESILFHYTDWVDDQRPENYREALGDVVGDYNFICPALEFTKKFSEWGNNAFFYYFEHRSSKLPWPEWMGVMHGYEIEFVFGLPLERRDNYTKAEEILSRSIVKRWANFAKYGNPNETQNNSTSWPVFKSTEQKYLTLNTESTRIMTKLRAQQCRFWTSFFPKVLEMTGNIDEAEWEWKAGFHRWNNYMMDWKNQFNDYTSKKESCVGL
For B3, the “protection against cocaine-induced lethality” value in series [4] (13 mg (10-times molar equivalent dose), one minute before 180 mg/kg cocaine) is recorded as “no protection”. The “treatment required for protection against an LD50 dose of cocaine” value in series [12] is 10 mg/kg. In addition, in series [7] (1 mg), the “change in the dose of cocaine necessary to kill the mice” value is given as “slight increase” and the time to death entry is on record as “not modified”. Besides, in [13], the Kcat is 0.0683 s⁻¹ and the Km is 4.5 µM.
